The results in this text go back to the supplement of paper PMC9233669.

Fewer inactive variants are shown than the library holds.

One data set concerns biotinyl-Met-oxazolone. As to the kind of experiment: self-aminoacylation, catalytic enhancement (BMO) (fold over background); higher = more active; k-Seq, kA / k0A0; sequences stand for … in GGGAAUGGAUCCACAUCUACGAAUUC…UUCACUGCAGACUUGACGAAGCUG
The gist of the method: (§1)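 The uncatalyzed rate is the low-activity peak of a bimodal Gaussian fit, and catalytic enhancement is median kA divided by it. The kA values came from pseudo-first-order fits, with 1000 bootstraps, of per-sequence fraction reacted measured by streptavidin capture, triplicate qPCR and Illumina sequencing. Mutagenized RNA pools with a 21-nt variable region (0.43 μM) were reacted with each biotinyl-aminoacyl-oxazolone at 2–1250 μM in 50 μL HEPES/NaCl/KCl/MgCl2/CaCl2 buffer with 5% acetonitrile, pH 6.9–7.0, for 90 minutes at room temperature.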

Another data set deals with biotinyl-Ile-oxazolone. The data set is described as follows: self-aminoacylation, catalytic enhancement (BIO) (fold over background); higher = more active; k-Seq, kA / k0A0; sequences stand for … in GGGAAUGGAUCCACAUCUACGAAUUC…UUCACUGCAGACUUGACGAAGCUG
An outline of the steps:
as §1

In the next data set the test system is biotinyl-Trp-oxazolone. As to the kind of experiment: self-aminoacylation, catalytic enhancement (BWO) (fold over background); higher = more active; k-Seq, kA / k0A0; sequences stand for … in GGGAAUGGAUCCACAUCUACGAAUUC…UUCACUGCAGACUUGACGAAGCUG
An outline of the steps: as §1

In the next data set the test system is biotinyl-Val-oxazolone. The data set is described as follows: self-aminoacylation, catalytic enhancement (BVO) (fold over background); higher = more active; k-Seq, kA / k0A0; sequences stand for … in GGGAAUGGAUCCACAUCUACGAAUUC…UUCACUGCAGACUUGACGAAGCUG
The gist of the method:
as §1

In the next data set the test system is biotinyl-Phe-oxazolone. As to the kind of experiment: self-aminoacylation, catalytic enhancement (BFO) (fold over background); higher = more active; k-Seq, kA / k0A0; sequences stand for … in GGGAAUGGAUCCACAUCUACGAAUUC…UUCACUGCAGACUUGACGAAGCUG
The gist of the method:
as §1

The test system of another data set is biotinyl-Leu-oxazolone. As to the kind of experiment: self-aminoacylation, catalytic enhancement (BLO) (fold over background); higher = more active; k-Seq, kA / k0A0; sequences stand for … in GGGAAUGGAUCCACAUCUACGAAUUC…UUCACUGCAGACUUGACGAAGCUG
An outline of the steps:
as §1

“CUACUUCAAACAAUCCGUUUG [Fam1A.1 aminoacylation ribozyme variant]”: the self-aminoacylation was 0.594 with biotinyl-Met-oxazolone; 0.694 in the data set on biotinyl-Ile-oxazolone; 0.87 in the data set on biotinyl-Trp-oxazolone; 0.77 in the data set with biotinyl-Val-oxazolone; 0.704 in the data set with biotinyl-Phe-oxazolone; 0.674 in the data set with biotinyl-Leu-oxazolone.
Regarding “CCACACGUCACGCAAUCGGUC [Fam1B.1 aminoacylation ribozyme variant]”, the self-aminoacylation with biotinyl-Met-oxazolone is 2.03; with biotinyl-Ile-oxazolone, 1.58; in the data set with biotinyl-Trp-oxazolone, 1.95; in the data set on biotinyl-Val-oxazolone, 2.16; in the data set on biotinyl-Phe-oxazolone, 3.73; in the data set with biotinyl-Leu-oxazolone, 1.84.
Consider “GUUACCCUGGUCAUCGUGUGA [Fam2.1 aminoacylation ribozyme variant]”, for which the self-aminoacylation came to 4.3 in the data set with biotinyl-Met-oxazolone; 2.6 in the data set on biotinyl-Ile-oxazolone; 6.06 with biotinyl-Trp-oxazolone; 3.08 in the data set with biotinyl-Val-oxazolone; 30.3 with biotinyl-Phe-oxazolone; 4.75 in the data set with biotinyl-Leu-oxazolone.
“AUUCACCUAAGACAUCGGGUG [Fam2.2 aminoacylation ribozyme variant]”: the self-aminoacylation in the data set on biotinyl-Met-oxazolone came out at 4.49; in the data set on biotinyl-Ile-oxazolone, 3.05; in the data set on biotinyl-Trp-oxazolone, 4.54; in the data set with biotinyl-Val-oxazolone, 3.13; with biotinyl-Phe-oxazolone, 33.4; in the data set with biotinyl-Leu-oxazolone, 5.92.
For the sequence “GUUACCCAGGUCAUCGAGUGA [Fam2.1 aminoacylation ribozyme variant]”, the self-aminoacylation stood at 6.63 in the data set with biotinyl-Met-oxazolone; 4.24 in the data set with biotinyl-Ile-oxazolone; 7.86 in the data set with biotinyl-Trp-oxazolone; 3.78 with biotinyl-Val-oxazolone; 22.2 in the data set on biotinyl-Phe-oxazolone; 6.2 in the data set on biotinyl-Leu-oxazolone.
As for “AUUACUCUGGUAAUCGAGUGA [Fam2.1 aminoacylation ribozyme variant]”, the self-aminoacylation turned out to be 7.65 with biotinyl-Met-oxazolone; 3.66 in the data set with biotinyl-Ile-oxazolone; 9.06 with biotinyl-Trp-oxazolone; 3.46 with biotinyl-Val-oxazolone; 45.5 in the data set with biotinyl-Phe-oxazolone; 8.85 in the data set on biotinyl-Leu-oxazolone.
On to “AUUCACCUGGGUCUUCGGGUG [Fam2.2 aminoacylation ribozyme variant]”, for which the self-aminoacylation worked out at 5.53 in the data set on biotinyl-Met-oxazolone; 4.14 in the data set with biotinyl-Ile-oxazolone; 5.25 with biotinyl-Trp-oxazolone; 5.01 with biotinyl-Val-oxazolone; 38.6 in the data set on biotinyl-Phe-oxazolone; 7.31 in the data set with biotinyl-Leu-oxazolone.
Turning to “CUACCUCAAAGAAUCGGUCUG [Fam1A.1 aminoacylation ribozyme variant]”, the self-aminoacylation with biotinyl-Met-oxazolone stood at 1.15; in the data set on biotinyl-Ile-oxazolone, 1.07; in the data set on biotinyl-Trp-oxazolone, 1.53; with biotinyl-Val-oxazolone it was 1.07; in the data set with biotinyl-Phe-oxazolone, 1.97; in the data set with biotinyl-Leu-oxazolone, 0.749.
“CUAUCUCAAACAAUCGGUCUG [Fam1A.1 aminoacylation ribozyme variant]”: the self-aminoacylation was found to be 0.856 in the data set with biotinyl-Met-oxazolone; 0.789 with biotinyl-Ile-oxazolone; 1.35 in the data set with biotinyl-Trp-oxazolone; 0.781 in the data set with biotinyl-Val-oxazolone; 1.87 with biotinyl-Phe-oxazolone; 0.628 in the data set with biotinyl-Leu-oxazolone.
Consider “ACGUUUGCUAAUAGUCGCAAU [Fam3.1 aminoacylation ribozyme variant]”, for which the self-aminoacylation is 1.45 in the data set with biotinyl-Met-oxazolone; 1.66 in the data set with biotinyl-Ile-oxazolone; 1.53 in the data set on biotinyl-Trp-oxazolone; 1.33 with biotinyl-Val-oxazolone; 2.06 in the data set with biotinyl-Phe-oxazolone; 1.51 in the data set with biotinyl-Leu-oxazolone.
For “AUACUCCAAACAAUCGGUCUG [Fam1A.1 aminoacylation ribozyme variant]”, the self-aminoacylation in the data set with biotinyl-Met-oxazolone was 0.759; in the data set with biotinyl-Ile-oxazolone, 0.827; in the data set on biotinyl-Trp-oxazolone, 1.61; in the data set with biotinyl-Val-oxazolone, 0.743; in the data set with biotinyl-Phe-oxazolone, 1.98; in the data set on biotinyl-Leu-oxazolone, 0.534.
Take “AUUCAACUAGCUCAUCGGGUG [Fam2.2 aminoacylation ribozyme variant]”: the self-aminoacylation with biotinyl-Met-oxazolone worked out at 1.74; in the data set with biotinyl-Ile-oxazolone, 2.04; in the data set with biotinyl-Trp-oxazolone, 1.82; with biotinyl-Val-oxazolone, 2.45; in the data set with biotinyl-Phe-oxazolone, 15; with biotinyl-Leu-oxazolone, 2.
With “AAAUUUACUAAUAGUCGCAAG [Fam3.1 aminoacylation ribozyme variant]”, the self-aminoacylation is 2.27 in the data set with biotinyl-Met-oxazolone; 2.35 in the data set with biotinyl-Ile-oxazolone; 2.31 with biotinyl-Trp-oxazolone; 2.21 in the data set with biotinyl-Val-oxazolone; 3.14 with biotinyl-Phe-oxazolone; 1.89 with biotinyl-Leu-oxazolone.
For the sequence “AUUCACCUAGGUCAUUGCGUG [Fam2.2 aminoacylation ribozyme variant]”, the self-aminoacylation in the data set on biotinyl-Met-oxazolone amounted to 15.7; in the data set with biotinyl-Ile-oxazolone, 8.82; in the data set on biotinyl-Trp-oxazolone it was 15.8; in the data set on biotinyl-Val-oxazolone, 7.69; in the data set on biotinyl-Phe-oxazolone, 123; in the data set with biotinyl-Leu-oxazolone it was 21.7.
Regarding “AUUCACCUAUGUCAUAGGGUG [Fam2.2 aminoacylation ribozyme variant]”, the self-aminoacylation in the data set on biotinyl-Met-oxazolone was found to be 1.46; with biotinyl-Ile-oxazolone, 1.36; in the data set on biotinyl-Trp-oxazolone, 0.856; in the data set on biotinyl-Val-oxazolone, 1.15; in the data set on biotinyl-Phe-oxazolone, 1.08; with biotinyl-Leu-oxazolone, 1.75.
With “CAACACUUCAAGCAAUCGGCC [Fam1B.1 aminoacylation ribozyme variant]”, the self-aminoacylation in the data set with biotinyl-Met-oxazolone is 2.64; in the data set with biotinyl-Ile-oxazolone it was 2.57; with biotinyl-Trp-oxazolone it was 3.87; in the data set on biotinyl-Val-oxazolone it was 2.58; in the data set with biotinyl-Phe-oxazolone, 4.12; in the data set with biotinyl-Leu-oxazolone, 2.45.
Turning to “CCACACUUCCAGCAUUCGGUC [Fam1B.1 aminoacylation ribozyme variant]”, the self-aminoacylation in the data set with biotinyl-Met-oxazolone was determined as 2.05; in the data set on biotinyl-Ile-oxazolone, 2.48; in the data set with biotinyl-Trp-oxazolone, 2.58; in the data set on biotinyl-Val-oxazolone, 2.81; in the data set on biotinyl-Phe-oxazolone it was 1.12; in the data set on biotinyl-Leu-oxazolone it was 2.42.
Regarding “CCACACUUCACGCAAUCGUUC [Fam1B.1 aminoacylation ribozyme variant]”, the self-aminoacylation in the data set with biotinyl-Met-oxazolone is 0.717; with biotinyl-Ile-oxazolone, 0.725; with biotinyl-Trp-oxazolone it was 0.939; in the data set with biotinyl-Val-oxazolone, 0.905; in the data set with biotinyl-Phe-oxazolone, 0.716; in the data set with biotinyl-Leu-oxazolone, 0.794.
For “AUUCCACUAGGUCAUCGGGUG [Fam2.2 aminoacylation ribozyme variant]”, the self-aminoacylation worked out at 9.49 in the data set with biotinyl-Met-oxazolone; 6.56 in the data set with biotinyl-Ile-oxazolone; 8.98 with biotinyl-Trp-oxazolone; 6.23 in the data set with biotinyl-Val-oxazolone; 77.2 in the data set on biotinyl-Phe-oxazolone; 14.2 with biotinyl-Leu-oxazolone.
Take “CUACUUCAUACAAUCGGUCUG [Fam1A.1 aminoacylation ribozyme variant]”: the self-aminoacylation with biotinyl-Met-oxazolone was determined as 0.668; in the data set with biotinyl-Ile-oxazolone, 0.707; with biotinyl-Trp-oxazolone, 0.553; with biotinyl-Val-oxazolone, 0.743; in the data set on biotinyl-Phe-oxazolone, 0.808; with biotinyl-Leu-oxazolone, 0.643.
For “AUUCACCUAGGCCAUCGGGGG [Fam2.2 aminoacylation ribozyme variant]”, the self-aminoacylation in the data set on biotinyl-Met-oxazolone came out at 2.64; in the data set with biotinyl-Ile-oxazolone it was 2.5; in the data set on biotinyl-Trp-oxazolone, 2.28; in the data set on biotinyl-Val-oxazolone it was 2.82; in the data set on biotinyl-Phe-oxazolone, 10.8; in the data set on biotinyl-Leu-oxazolone, 4.55.
